According to paper PMC4609117:

B1: Ms0535p0 (dsDNA)
DNA 1: CACACCGCCTTGCATGCATTCTTGCATGCAAGGCGCGCTA
DNA 2: TAGCGCGCCTTGCATGCAAGAATGCATGCAAGGCGGTGTG
B2: Ms0535p1 (one IR mutated) (dsDNA)
DNA 1: CACACCGTTCCATGCATGTTCTTGCATGCAAGGCGCGCTA
DNA 2: TAGCGCGCCTTGCATGCAAGAACATGCATGGAACGGTGTG
B3: Ms0535p2 (one IR mutated) (dsDNA)
DNA 1: CACACCGCCTTGCATGCATTCTCATGCATGGCCCGCGCTA
DNA 2: TAGCGCGGGCCATGCATGAGAATGCATGCAAGGCGGTGTG
B4: Ms0535p7 (both IRs mutated) (dsDNA)
DNA 1: CACACCGTTCCATGCATGTTCTCATGCATGGAACGCGCTA
DNA 2: TAGCGCGTTCCATGCATGAGAACATGCATGGAACGGTGTG

Columns and labels:
[1] = molecular target: T1, Ms0535 (GntR family, FadR/VanR-like regulator) (Mycobacterium smegmatis mc2 155, UniProt A0QPV8 1-212); experiment: EMSA; 0-4 uM protein; settings: protein: recombinant; tags: His-tag (pET28a); chain copies: 2; blunt
[2] = molecular target: T1, Ms0535 (GntR family, FadR/VanR-like …); experiment: EMSA; 0-4 uM protein; only one shifted band; settings: protein: recombinant; tags: His-tag (pET28a); chain copies: 2; blunt

Binder	binding result [1]	binding result [2]
B1	binds	
B2		binds
B3		binds
B4	no binding	
